Laboratory results reported in paper PMC5038328, “IMP-27, a Unique Metallo-β-Lactamase Identified in Geographically Distinct Isolates of Proteus mirabilis” (Antimicrobial Agents and Chemotherapy, 2016).
One block for each compound: values may come before it.

Experiments:
[1] = target: T1, IMP-27 (Proteus mirabilis, UniProt F8UQX1); assay: inhibition of nitrocefin hydrolysis, spectrophotometric initial rates; assay type: biochemical
T1 construct: gene PCR amplified from 2009 isolate DNA, pET-9a, E. coli BL21(DE3)/pLysS; KF501391 is the class 2 integron record
T1 sequence (F8UQX1 entry or part of it): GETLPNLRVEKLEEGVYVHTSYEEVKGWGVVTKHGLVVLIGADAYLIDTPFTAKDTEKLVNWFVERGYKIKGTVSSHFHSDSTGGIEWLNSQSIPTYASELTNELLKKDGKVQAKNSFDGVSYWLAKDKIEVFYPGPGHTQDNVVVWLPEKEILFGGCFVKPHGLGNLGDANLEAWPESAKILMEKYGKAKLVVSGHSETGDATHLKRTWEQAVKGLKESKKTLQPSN

[2] = target: T1, IMP-27; assay: spectrophotometric initial rates; assay type: biochemical
Description: spectrophotometric initial rates on IMP-27

[3] = test system: CO/N=C(\C(=O)N[C@@H]1C(=O)N2C(C(=O)[O-])=C(C[N+]3(C)CCCC3)CS[C@H]12)c1csc(N)n1; assay: spectrophotometric initial hydrolysis rates; assay type: biochemical, Proteus mirabilis
Description: (§1) spectrophotometric initial hydrolysis rates on IMP-27

[4] = test system: CC(C)(O/N=C(\C(=O)N[C@@H]1C(=O)N2C(C(=O)[O-])=C(C[n+]3ccccc3)CS[C@H]12)c1csc(N)n1)C(=O)O; assay: spectrophotometric initial hydrolysis rates; assay type: biochemical, Proteus mirabilis
Description: as §1

[5] = test system: CO/N=C(\C(=O)N[C@@H]1C(=O)N2C(C(=O)O)=C(COC(C)=O)CS[C@H]12)c1csc(N)n1; assay: spectrophotometric initial hydrolysis rates; assay type: biochemical, Proteus mirabilis
Description: as §1

[6] = test system: O=C(Cc1cccs1)N[C@@H]1C(=O)N2C(C(=O)O)=C(/C=C/c3ccc([N+](=O)[O-])cc3[N+](=O)[O-])CS[C@H]12; assay: spectrophotometric initial hydrolysis rates; assay type: biochemical, Proteus mirabilis
Description: as §1

[7] = test system: C[C@@H](O)[C@H]1C(=O)N2C(C(=O)O)=C(S[C@@H]3CN[C@H](C(=O)N(C)C)C3)[C@H](C)[C@H]12; assay: competition with nitrocefin hydrolysis, spectrophotometric; assay type: biochemical, Proteus mirabilis; conditions: Km measured as Ki with nitrocefin as reporter substrate
Description: (§2) competition with nitrocefin hydrolysis, spectrophotometric on IMP-27

[8] = test system: C[C@@H](O)[C@H]1C(=O)N2C(C(=O)O)=C(SCCN=CN)C[C@H]12; assay: as above; assay type: biochemical, Proteus mirabilis; conditions: Km measured as Ki with nitrocefin as reporter substrate
Description: as §2

- Ki ([1]; read-out: Ki): 11 ± 0.9 mM
Compound: O=C(O)CN(CCN(CC(=O)O)CC(=O)O)CC(=O)O [EDTA]

Compound: C[C@H]1[C@H](NC(=O)/C(=N\OC(C)(C)C(=O)O)c2csc(N)n2)C(=O)N1S(=O)(=O)O [aztreonam]
- Ki [2]: > 23 mM

Compound: O=C(O)c1cccc(C(=O)O)n1 [dipicolinic acid]
- Ki ([1]; read-out: Ki): 4.6 ± 0.13 mM

Compound: CCN1CCN(C(=O)N[C@@H](C(=O)N[C@@H]2C(=O)N3[C@@H]2SC(C)(C)[C@@H]3C(=O)O)c2ccccc2)C(=O)C1=O [piperacillin]
- Ki ([1]; read-out: IMP-27 / Km or Ki): 3 mM

Compound: IMP-27 (Proteus mirabilis)
- Km [3]: 53 ± 3.6 µM
- kcat [3]: 8.1 ± 0.37 s⁻¹
- kcat/Km [3]: 150000 M⁻¹ s⁻¹
- Km [4]: 54 ± 4.3 µM
- kcat [4]: 0.7 ± 0.03 s⁻¹
- kcat/Km [4]: 13000 M⁻¹ s⁻¹
- Km [5]: 24 ± 1.9 µM
- kcat [5]: 20 ± 0.66 s⁻¹
- kcat/Km [5]: 860000 M⁻¹ s⁻¹
- Km [6]: 36 ± 3.1 µM
- kcat [6]: 370 ± 15 s⁻¹
- kcat/Km [6]: 1e+07 M⁻¹ s⁻¹
- Km [7]: 2.3 ± 0.8 µM
- kcat [7]: 3.4 ± 0.53 s⁻¹
- kcat/Km [7]: 1.5e+06 M⁻¹ s⁻¹
- Km [8]: 310 ± 19 µM
- kcat [8]: 34 ± 0.38 s⁻¹
- kcat/Km [8]: 110000 M⁻¹ s⁻¹
